Patent US11994512B2, “Single-cell genomic methods to generate ex vivo cell systems that recapitulate in vivo biology with improved fidelity” (Massachusetts Institute of Technology, priority 2018, dated 2024)

B1: Q33DR2 (protein, UniProt Q33DR2 1-409, looked up)
chain: MAMRWSCWRRGCSWRPTAVGSPRRERPGCVEPLGTRAASDTRAQIPYFSLMKILMSASPTMHSISQFHQRTPAMCSCRQTQSGEKYSDPFKLGWRDLKGLYEDIRKELHISTRELKDMSEYYFDGKGKAFRPIIVVLMARACNIHHNNAREMQASQRSIALVAEMIHTATLVHDDVIDDASSRRGKHTVNKIWGEKKAVLAGDLILSAASVALARIGNTAVVSMLAQVIEDLVRGEFLQLGSKENENERFAHYLEKTFKKTASLIANSCKAVSVLGCPDPVVHEIAYQYGKNVGIAFQLIDDVLDFTSCSDQMGKPTSADLKLGIATGPVLFACQQFPEMNAMIMRRFSLPGDVDRARQYVLQSDGVQQTTYLAQQYCHKAVREIRKLRPSTERDALIQLSESVLTRDK
modifications: full-length
B2: Q00623 (protein, UniProt Q00623 1-264, looked up)
chain: MKAVVLAVALVFLTGSQAWHVWQQDEPQSQWDKVKDFANVYVDAVKDSGRDYVSQFESSSLGQQLNLNLLENWDTLGSTVSQLQERLGPLTRDFWDNLEKETDWVRQEMNKDLEEVKQKVQPYLDEFQKKWKEDVELYRQKVAPLGAELQESARQKLQELQGRLSPVAEEFRDRMRTHVDSLRTQLAPHSEQMRESLAQRLAELKSNPTLNEYHTRAKTHLKTLGEKARPALEDLRHSLMPMLETLKTQVQSVIDKASETLTAQ
modifications: full-length
B3: Q3U9N9 (protein, UniProt Q3U9N9 1-512, looked up)
chain: MVPSQEEPAAERETNEAQPPGPAPSDDAPLPGPGPSDVSDVAAEKVEVELTRSAGSEPPVPPEGGWGWLVMLAAMWCNGSVFGIQNAYGVLFVSMLDTFKAKDDDNMAFKTAWVGSLSMGMIFFCCPIVSVFTDMFGCRRTAVVGAAVGFIGLMSSSFVSSIEPLYLTYGIIFACGCSFAYQPSLVILGHYFKKRLGLVNGIVTAGSSVFTILLPLLLGNLISSVKLFNTLRILCIFMFVLFLAGFTYRPLVPSTKEKESGGSRSSFFSRRKLSPPKKVFNFALFKETTYAVWAAGIPLALFGYFVPYVHLMNHVKERFQDVNNKEVLFMCIGITSGVGRLLFGRIADYLPGVKKVYLQVLSFFFIGLMSMMIPLCSAFGALIAVCLAMGLFDGCFISIMAPIAFELVGPQDASQAIGFLLGFMSIPMTVGPPIAGLLHDKLGTYDVAFYLAGIPPFVGGVVLCLIPWIHSKKQRKISKNAGGEKMEKMLENQSSLLSGSSGIFKKDSASII
modifications: full-length
B4: Q3U0B3 (protein, UniProt Q3U0B3 1-260, looked up)
chain: MTRAGMERWRDRLALVTGASGGIGAAVARALVQQGLKVVGCARTVGNIEELAAECKSAGYPGTLIPYRCDLSNEEDILSMFSAVRSQHSGVDICINNAGMARPDTLLSGSTSGWKDMFNVNVLALSICTREAYQSMKERNIDDGHIININSMCGHRVPPQSVIHFYSATKYAVTALTEGLRQELLEAQTHIRATCISPGLVETQFAFKLHDKDPGEAAATYEHIKCLRPEDVAEAVIYVLSTPPHVQVGDIQMRPTEQVT
modifications: full-length
B5: Q3UA16 (protein, UniProt Q3UA16 1-226, looked up)
chain: MGEDELALLNQSINEFGDKFRNRLDDNHSQVLGLRDAFKDSMKAFSEKMSLKLKEEERMTEMILEYKNQLCKQNKLIQEKKENVLKMIAEVKGKEQESEELTAKIQELKEEYARKRETISTANKANEERLKGLQKSADLYRDYLGLEIRKIHGNKLQFIFTSIDPKNPESPYMFSMSINEAKEYEVYDSSPHLECLAEFQEKVRKTNNFSAFLANIRKAFIAKVHN
modifications: full-length
B6: P98063 (protein, UniProt P98063 1-991, looked up)
chain: MPGVARPPLPLLSLPLLLLLLLLPRAGRPLDLADYTYDLGEEDAPELLNYKDPCKAAAFLGDIALDEEDLRAFQVQQAAVLRQQTARRPSIKAAGNSSALGGQGTSGQPQRESRGRWRGRPRSRRAATSRPERVWPDGVIPFVIGGNFTGSQRAVFRQAMRHWEKHTCVTFLERTDEDSYIVFTYRPCGCCSYVGRRGGGPQAISIGKNCDKFGIVVHELGHVIGFWHEHTRPDRDRHVSIVRENIQPGQEYNFLKMEVQEVESLGETYDFDSIMHYARNTFSRGIFLDTIVPKYEVNGVKPSIGQRTRLSKGDIAQARKLYKCPACGETLQDSTGNFSSPEYPNGYSAHMHCVWRISVTPGEKIILNFTSMDLYRSRLCWYDYVEVRDGFWRKAPLRGRFCGGKLPEPIVSTDSRLWVEFRSSSNWVGKGFFAVYEAICGGDVKKDNGHIQSPNYPDDYRPSKVCIWRIQVSEGFHVGLTFQSFEIERHDSCAYDYLEVRDGHSESSNLIGRYCGYEKPDDIKSTSSRLWLKFVSDGSINKAGFAVNFFKEVDECSRPNRGGCEQRCLNTLGSYKCSCDPGYELAPDKRRCEAACGGFLTKLNGSITSPGWPKEYPPNKNCIWQLVAPTQYRISLQFDFFETEGNDVCKYDFVEVRSGLTADSKLHGKFCGSEKPEVITSQYNNMRVEFKSDNTVSKKGFKAHFFSDKDECSKDNGGCQQDCVNTFGSYECQCRSGFVLHDNKHDCKEAGCEHKVTSTSGTITSPNWPDKYPSKKECTWAISSTPGHRVKLTFVEMDIESQPECAYDHLEVFDGRDAKAPVLGRFCGSKKPEPVLATGNRMFLRFYSDNSVQRKGFQASHSTECGGQVRADVKTKDLYSHAQFGDNNYPGGVDCEWVIVAEEGYGVELVFQTFEVEEETDCGYDYIELFDGYDSTAPRLGRYCGSGPPEEVYSAGDSVLVKFHSDDTISKKGFHLRYTSTKFQDTLHSRK
modifications: full-length
B7: Q05186 (protein, UniProt Q05186 1-325, looked up)
chain: MARGGRLGLALGLLLALVLALRAKPTVRKERVVRPDSELGERPPEDNQSFQYDHEAFLGKEDSKTFDQLSPDESKERLGKIVDRIDSDGDGLVTTEELKLWIKRVQKRYIYDNVAKVWKDYDRDKDEKISWEEYKQATYGYYLGNPAEFHDSSDHHTFKKMLPRDERRFKASDLDGDLTATREEFTAFLHPEEFEHMKEIVVLETLEDIDKNGDGFVDQDEYIADMFSHEDNGPEPDWVLSEREQFNDFRDLNKDGKLDKDEIRHWILPQDYDHAQAEARHLVYESDKNKDEMLTKEEILDNWNMFVGSQATNYGEDLTKNHDEL
modifications: full-length
B8: Q08652 (protein, UniProt Q08652 1-134, looked up)
chain: MTKDQNGTWEMESNENFEGYMKALDIDFATRKIAVRLTQTKIITQDGDNFKTKTNSTFRNYDLDFTVGVEFDEHTKGLDGRHVKTLVTWEGNTLVCVQKGEKENRGWKQWVEGDKLYLELTCGDQVCRQVFKKK
modifications: full-length
B9: Q07797 (protein, UniProt Q07797 1-577, looked up)
chain: MALLWLLSVFLLVPGTQGTEDGDMRLVNGASANEGRVEIFYRGRWGTVCDNLWNLLDAHVVCRALGYENATQALGRAAFGPGKGPIMLDEVECTGTESSLASCRSLGWMVSRCGHEKDAGVVCSNDTTGLHILDLSGELSDALGQIFDSQQGCDLFIQVTGQGYEDLSLCAHTLILRTNPEAQALWQVVGSSVIMRVDAECMPVVRDFLRYFYSRRIEVSMSSVKCLHKLASAYGATELQDYCGRLFATLLPQDPTFHTPLDLYAYARATGDSMLEDLCVQFLAWNFEPLTQSESWSAVPTTLIQALLPKSELAVSSELDLLKAVDQWSTETIASHEDIERLVEQVRFPMMLPQELFELQFNLSLYQDHQALFQRKTMQALEFHTVPVEVLAKYKGLNLTEDTYKPRLYTSSTWSSLVMASTWRAQRYEYNRYNQLYTYGYGSVARYNSYQSFQTPQHPSFLFKDKQISWSATYLPTMQSCWNYGFSCTSNELPVLGLTTSSYSNPTIGYENRVLILCGGYSVVDVTSFEGSKAPIPTALDTNSSKTPSLFPCASGAFSSFRVVIRPFYLTNSTDMV
modifications: full-length
B10: Q03157 (protein, UniProt Q03157 1-654, looked up)
chain: MGPTSPAARGQGRRWRPPPLPLLLPLSLLLLRAQLAVGNLAVGSPSAAEAPGSAQVAGLCGRLTLHRDLRTGRWEPDPQRSRRCLLDPQRVLEYCRQMYPELHIARVEQAAQAIPMERWCGGTRSGRCAHPHHEVVPFHCLPGEFVSEALLVPEGCRFLHQERMDQCESSTRRHQEAQEACSSQGLILHGSGMLLPCGSDRFRGVEYVCCPPPATPNPSGMAAGDPSTRSWPLGGRAEGGEDEEEVESFPQPVDDYFVEPPQAEEEEEEEEERAPPPSSHTPVMVSRVTPTPRPTDGVDVYFGMPGEIGEHEGFLRAKMDLEERRMRQINEVMREWAMADSQSKNLPKADRQALNEHFQSILQTLEEQVSGERQRLVETHATRVIALINDQRRAALEGFLAALQGDPPQAERVLMALRRYLRAEQKEQRHTLRHYQHVAAVDPEKAQQMRFQVQTHLQVIEERMNQSLGLLDQNPHLAQELRPQIQELLLAEHLGPSELDASVPGSSSEDKGSLQPPESKDDPPVTLPKGSTDQESSSSGREKLTPLEQYEQKVNASAPRGFPFHSSDIQRDELAPSGTGVSREALSGLLIMGAGGGSLIVLSLLLLRKKKPYGTISHGVVEVDPMLTLEEQQLRELQRHGYENPTYRFLEERP
modifications: full-length

test system: intracellular proteome of ENR+CD and ENR organoids; assay: LC-MS/MS TMT proteomics of ENR+CD versus ENR organoids; type: cell-based, C57BL/6 mice; details: protein abundance, ENR+CD versus ENR organoids; aggregate of the four sample pairs

Molecule	Average logFC
B1	−1.389
B2	−2.027
B3	−1.314
B4	−1.3
B5	−1.826
B6	1.311
B7	1.307
B8	−1.48
B9	1.146
B10	1.178

same assay, conditions: protein abundance, ENR+CD versus ENR organoids; replicate M1-1; log2 ratio

Molecule	M1-1 Log2 Median Normalized
B1	−1.379
B2	−1.311
B3	−1.309
B4	−1.054
B5	−1.924
B6	1.296
B7	1.602
B8	−1.364
B9	1.212
B10	1.177

same assay, conditions: protein abundance, ENR+CD versus ENR organoids; replicate M1-2; log2 ratio

Molecule	M1-2 Log2 Median Normalized
B1	−1.779
B2	−2.229
B3	−0.055
B4	−1.691
B5	−0.747
B6	1.342
B7	1.092
B8	−2.41
B9	1.255
B10	0.671

same assay, conditions: protein abundance, ENR+CD versus ENR organoids; replicate M2-1; log2 ratio

Molecule	M2-1 Log2 Median Normalized
B1	−1.2185
B2	−2.6175
B3	−1.4695
B4	−1.5305
B5	−1.8235
B6	1.2215
B7	1.0235
B8	−1.7785
B9	1.1065
B10	1.2695

same assay, conditions: protein abundance, ENR+CD versus ENR organoids; replicate M2-2; log2 ratio

Molecule	M2-2 Log2 Median Normalized
B1	−1.389
B2	−1.952
B3	−2.424
B4	−0.923
B5	−2.598
B6	1.383
B7	1.511
B8	−0.366
B9	1.011
B10	1.559

same assay, conditions: up = enriched in ENR+CD, down = enriched in ENR; FDR<0.05 and log fold change cut-off

Molecule	change
B1	down
B2	down
B3	down
B4	down
B5	down
B6	up
B7	up
B8	down
B9	up
B10	up
